Experimental data taken from patent US20250295803A1, “5T4 ANTIBODY-DRUG CONJUGATES AND USES THEREOF” (EXELIXIS, INC., priority 2022, published 2025).
Positions count from the first letter of the chain named.

B1: mAbA17 (antibody, V domains shown)
VH: EVQLVESGGGLVQPGGSLRLSCAASGFTFSRYWIHWVRQAPGKGLEWVAAIFPYSGSTLYADSVKGRFTISADTSKNTAYLQMNSLRAEDTAVYYCARSPSRSILPSGLDYWGQGTLVTVSS
VL: DIQMTQSPSSLSASVGDRVTITCRASQSVSSAVAWYQQKPGKAPKLLIYSASSLYSGVPSRFSGSRSGTDFTLTISSLQPEDFATYYCQQGDGSPYTFGQGTKVEIKR
notes: also called Antibody mAbA17
B2: mAbA15 (antibody, V domains shown)
VH: EVQLVESGGGLVQPGGSLRLSCAASGFTFSSYYIHWVRQAPGKGLEWVAYITSTGSYTEYADSVKGRFTISADTSKNTAYLQMNSLRAEDTAVYYCARYDRSTRYSGLDYWGQGTLVTVSS
VL: B1 VL with G91A, D92Y, G93A, S94T, Y96V
notes: also called Antibody mAbA15
B3: mAbA17: 5T4 antibody comprising VH of SEQ ID NO:62 and VL of SEQ ID NO:63 (antibody, V domains shown)
VH: B1 VH
VL: DIQMTQSPSSLSASVGDRVTITCRASQSVSSAVAWYQQKPGKAPKLLIYSASSLYSGVPSRFSGSRSGTDFTLTISSLQPEDFATYYCQQGDGSPYTFGQGTKVEIK
modifications: Antibody mAbA17 VH Sequence; Antibody mAbA17 VL Sequence
B4: mAbA4 (antibody, V domains shown)
VH: EVQLVESGGGLVQPGGSLRLSCAASGFTFSRYYIHWVRQAPGKGLEWVAFISPGGSYTYYADSVKGRFTISADTSKNTAYLQMNSLRAEDTAVYYCAREYYSMGVLDYWGQGTLVTVSS
VL: B1 VL with G91A, D92Y, G93E
notes: also called Antibody mAbA4
B5: mAbA4: 5T4 antibody comprising VH of SEQ ID NO:25 and VL of SEQ ID NO:26 (antibody, V domains shown)
VH: B4 VH
VL: B3 VL with G91A, D92Y, G93E
modifications: Antibody mAbA4 VH Sequence; Antibody mAbA4 VL Sequence
B6: mAbA15: 5T4 antibody comprising VH of SEQ ID NO:44 and VL of SEQ ID NO:45 (antibody, V domains shown)
VH: B2 VH
VL: B3 VL with G91A, D92Y, G93A, S94T, Y96V
modifications: Antibody mAbA15 VH Sequence; Antibody mAbA15 VL Sequence

Key:
[1] = target: T1, unconjugated human TPBG/5T4 protein with a c-terminal polyhistidine and Avi tag (AcroBiosystems Cat. No. … (human, UniProt Q13641 32-355)); test: ELISA on coated human 5T4 His-Avi (Acro TPG-H52E5); antibody condition: pH 8.5 Day 0
T1 construct: Bought protein; also called Acro TPGH52E5; Acro Catalog No. TPGH52E; not shown: C-terminal polyhistidine and Avi tag
T1 sequence: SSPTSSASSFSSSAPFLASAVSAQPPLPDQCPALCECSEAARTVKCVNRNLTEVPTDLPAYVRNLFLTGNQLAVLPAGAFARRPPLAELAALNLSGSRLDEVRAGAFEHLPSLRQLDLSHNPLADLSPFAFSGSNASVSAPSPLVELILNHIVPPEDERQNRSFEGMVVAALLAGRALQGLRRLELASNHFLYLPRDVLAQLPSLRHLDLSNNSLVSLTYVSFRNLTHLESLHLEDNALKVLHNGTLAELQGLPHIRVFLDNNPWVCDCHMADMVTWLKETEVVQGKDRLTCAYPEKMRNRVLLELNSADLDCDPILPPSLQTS
Description: (§1) A. Normal Binding Unconjugated antibodies were tested for their ability to bind to human 5T4 (hu5T4) using ELISA. On Day 1, unconjugated human TPBG/5T4 protein with a c-terminal polyhistidine and Avi (AVITAG™) tag (AcroBiosystems (Newark, DE, USA), Cat. No. TPG-H52E5) was diluted 2 μg/mL in PBS, mixed thoroughly, plated 100 μL per well in a 96-well plate (Nunc MAXISORP®) and incubated overnight at 4° C.

[2] = target: T1, unconjugated human TPBG/5T4 protein …; test: ELISA on coated human 5T4 His-Avi (Acro TPG-H52E5); antibody condition: pH 8.5 Day 4
Description: as §1

[3] = target: T1, unconjugated human TPBG/5T4 protein …; test: ELISA on coated human 5T4 His-Avi (Acro TPG-H52E5); antibody condition: pH 8.5 Day 1
Description: as §1

[4] = target: T1, unconjugated human TPBG/5T4 protein …; test: ELISA on coated human 5T4 His-Avi (Acro TPG-H52E5); antibody condition: PBS time 48 hr.
Description: as §1
3. Oxidative Stress. Several unconjugated antibodies were tested for their ability to bind to 5T4 using ELISA in an oxidative environment. Solutions of 1 mg/mL to 10 mg/mL of antibody in 20 mM citrate/50 mM NaCl at a pH of 5.5 were prepared and stored at 37° C. for 1 to 2 weeks.

[5] = target: T2, HEK293 and CHO cells transfected to express mouse 5T4 (Mus musculus, UniProt Q9Z0L0); test: Cell binding to transfected HEK293 and CHO cells, mouse 5T4; type: cell-based
T2 construct: expressed in transfected cells; host or cells: HEK293 and CHO
T2 sequence (Q9Z0L0 32-426): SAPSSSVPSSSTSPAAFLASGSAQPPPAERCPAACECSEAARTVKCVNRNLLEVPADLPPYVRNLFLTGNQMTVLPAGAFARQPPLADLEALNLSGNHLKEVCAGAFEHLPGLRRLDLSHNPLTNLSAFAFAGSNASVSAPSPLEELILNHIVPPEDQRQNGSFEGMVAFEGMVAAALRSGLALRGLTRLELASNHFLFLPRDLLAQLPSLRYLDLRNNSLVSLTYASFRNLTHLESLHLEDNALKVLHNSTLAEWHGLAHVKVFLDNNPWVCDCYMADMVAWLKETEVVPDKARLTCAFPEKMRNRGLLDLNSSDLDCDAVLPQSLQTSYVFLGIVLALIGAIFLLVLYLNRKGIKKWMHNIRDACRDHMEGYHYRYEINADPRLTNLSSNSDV
Description: Unconjugated antibodies were tested for their ability to bind to HEK293 and CHO cells transfected to express human, cyno, rat, or mouse 5T4.

[6] = Protein thermal shift (melting temperature); type: physicochemical
Description: Samples for protein thermal shift experiments (melting temperature) were prepared using the APPLIED BIOSYSTEMS™ PROTEIN THERMAL SHIFT™ Dye Kit (ThermoFisher Scientific Cat. No. 4461146). Data were collected using a QUANTSTUDIO™ 3 instrument (ThermoFisher Scientific Cat. No. A28567) with PROTEIN THERMAL SHIFT™ Software v1.4 (ThermoFisher Scientific Cat. No. 466038). Briefly, PROTEIN THERMAL SHIFT™ dye (1000×) was diluted in water to 8× in deionized water. Samples were prepared on ice by combining 5 μL of PROTEIN THERMAL SHIFT™ Buffer, 12.5 μL of protein solution, and 2.5 μL of the diluted PROTEIN THERMAL SHIFT™ Dye (8×) for a total reaction solution volume of 20 μL. The reaction solution was mixed 10 times with a pipette. Tubes were then spun down at 1000 rpm for 1 minute and then incubated on ice until analysis. Samples were loaded onto the instrument plate, which were then loaded into a QUANTSTUDIO™ 3 Real-Time PCR System instrument. Data was collected using the standard Melt Curve experiment with the following conditions: Step 1 temperature: 25° C. for 2 minutes; Step 2 temperature: 99° C. for 2 minutes with continuous fast ramp mode (Step 1: 1.6° C./sec; Step 2: 0.05° C./sec). Raw melting temperature data were deconvoluted within the QUANTSTUDIO™ 3 analysis software.

| Molecule | EC50 [1] | EC50 [2] | EC50 [3] | EC50 [4] | reactivity to cells transfected to express mouse 5T4 [5] | CH2 Tm [6] | Fab Tm [6] |
| --- | --- | --- | --- | --- | --- | --- | --- |
| B1 | 0.153 nM | 0.15 nM | 0.174 nM | 0.185 nM |  |  |  |
| B2 | 0.134 nM | 0.133 nM | 0.128 nM | 0.203 nM |  |  |  |
| B3 |  |  |  |  | not to cells transfected to express rat or mouse 5T4 | 70.06 | 81.92 |
| B4 | 0.12 nM | 0.114 nM | 0.127 nM | 0.189 nM |  |  |  |
| B5 |  |  |  |  | not to cells transfected to express rat or mouse 5T4 | 69.18 | 89.94 |
| B6 |  |  |  |  | not to cells transfected to express rat or mouse 5T4 | 70.07 | 86.38 |
